Here are results for one molecule from publication PMC3729259 (The Prostate, 2010).

The target of the experiment is Gal4-PAX6 fusion protein (human, UniProt P26367 1-422). As to the kind of experiment: two-hybrid.
Sequence of Gal4-PAX6 fusion protein (P26367 whole entry, the tested form may be a part): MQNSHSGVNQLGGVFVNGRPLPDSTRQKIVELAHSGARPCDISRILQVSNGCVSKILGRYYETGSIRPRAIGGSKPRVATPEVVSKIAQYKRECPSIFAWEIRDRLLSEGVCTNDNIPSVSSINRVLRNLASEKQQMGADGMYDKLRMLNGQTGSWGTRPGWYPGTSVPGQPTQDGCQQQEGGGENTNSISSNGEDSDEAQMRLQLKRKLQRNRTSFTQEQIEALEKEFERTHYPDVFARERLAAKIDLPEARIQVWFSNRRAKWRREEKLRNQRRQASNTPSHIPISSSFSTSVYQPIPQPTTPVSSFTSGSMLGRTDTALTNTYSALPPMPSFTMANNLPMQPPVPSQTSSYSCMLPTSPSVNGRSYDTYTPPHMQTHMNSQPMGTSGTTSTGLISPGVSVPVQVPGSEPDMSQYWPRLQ

B1: VP16-AR fusion protein (receptor, UniProt P10275 1-920, looked up)
chain: MEVQLGLGRVYPRPPSKTYRGAFQNLFQSVREVIQNPGPRHPEAASAAPPGASLLLLQQQQQQQQQQQQQQQQQQQQQQQETSPRQQQQQQGEDGSPQAHRRGPTGYLVLDEEQQPSQPQSALECHPERGCVPEPGAAVAASKGLPQQLPAPPDEDDSAAPSTLSLLGPTFPGLSSCSADLKDILSEASTMQLLQQQQQEAVSEGSSSGRAREASGAPTSSKDNYLGGTSTISDNAKELCKAVSVSMGLGVEALEHLSPGEQLRGDCMYAPLLGVPPAVRPTPCAPLAECKGSLLDDSAGKSTEDTAEYSPFKGGYTKGLEGESLGCSGSAAAGSSGTLELPSTLSLYKSGALDEAAAYQSRDYYNFPLALAGPPPPPPPPHPHARIKLENPLDYGSAWAAAAAQCRYGDLASLHGAGAAGPGSGSPSAAASSSWHTLFTAEEGQLYGPCGGGGGGGGGGGGGGGGGGGGGGGEAGAVAPYGYTRPPQGLAGQESDFTAPDVWYPGGMVSRVPYPSPTCVKSEMGPWMDSYSGPYGDMRLETARDHVLPIDYYFPPQKTCLICGDEASGCHYGALTCGSCKVFFKRAAEGKQKYLCASRNDCTIDKFRRKNCPSCRLRKCYEAGMTLGARKLKKLGNLKLQEEGEASSTTSPTEETTQKLTVSHIEGYECQPIFLNVLEAIEPGVVCAGHDNNQPDSFAALLSSLNELGERQLVHVVKWAKALPGFRNLHVDDQMAVIQYSWMGLMVFAMGWRSFTNVNSRMLYFAPDLVFNEYRMHKSRMYSQCVRMRHLSQEFGWLQITPQEFLCMKALLLFSIIPVDGLKNQKFFDELRMNYIKELDRIIACKRKNPTSCSRRFYQLTKLLDSVQPIARELHQFTFDLLIKSHMVSVDFPEMMAEIISVQVPKILSGKVKPIYFHTQ
On to B1, for which the “fold luciferase activity (against cells with pGal4 and pVP16)” value is 4 fold.
